What was measured:
[1] = molecular target: T1, rat brain farnesyl:protein transferase (rat, UniProt Q04631 2-377; Q02293 1-437); assay: cell-based or functional assay
[2] = molecular target: T1, rat brain farnesyl:protein transferase; assay: cell-based or functional assay; remark: listed apart in the source

| Binder | concentration giving 50% inhibition (farnesyl transfer to p21^H-ras) [1] | Concentration for 50% Inhibition (farnesyl transfer to p21^H-ras) [2] |
| --- | --- | --- |
| CVIE [CVIM with glutamic acid at the X position] | > 40 µM |  |
| CAIL |  | 100 µM |

Now from value to binder:

| concentration giving 50% inhibition (farnesyl transfer to p21^H-ras) [1] | Concentration for 50% Inhibition (farnesyl transfer to p21^H-ras) [2] | Binder |
| --- | --- | --- |
| > 40 µM |  | CVIK [CVIM with lysine at the X position] |
| > 40 µM |  | CVIG [CVIM with glycine at the X position] |

— patent publication US6632626 (dated 2003)
